Source: patent US20160311886A1, “Constructs Binding to Phosphatidylserine and Their Use in Disease Treatment and Imaging” (Board of Regents, The University of Texas System, priority 2005, published 2016)

How the values were obtained:
[1] = Competition of 9D2 and annexin V for binding to immobilized PS; conditions: competitor in 10-fold molar excess
Procedure: Biotinylated 9D2 antibody and annexin V were prepared by incubating purified proteins with a 10-fold molar excess of N-hydroxysuccinimide biotin (Sigma, MO) for 1 h at room temperature. Free biotin was removed by dialysis against PBS. […] For competition studies, […] biotinylated proteins were premixed with a 10-fold molar excess of unmodified proteins. The mixtures were then added to PS-coated plates. Bound reagents were detected by streptavidin-HRP conjugate diluted 1:1000. The binding to PS of each reagent in the absence of a competitor was taken as the 100% value.

bEnd.3 and ABAE cells = assay: Binding to cultured endothelial cells and inhibition by liposomes; assay type: cell-based, mouse, bovine; conditions: quiescent conditions
Procedure: Endothelial cells were grown until they reached approximately 70% confluence. To induce PS exposure, cells were treated with H2O2 (200 μM) for 1 h at 37° C. Control and treated slides were washed with DPBS containing Ca^2+ and Mg^2+ and fixed with 0.25% of glutaraldehyde diluted in the same buffer. Excess aldehyde groups were quenched by incubation with 50 mM of NH4Cl for 5 min. To examine the effect of detergents and organic solvents on detection of phospholipids, some slides were pre-incubated with acetone (5 min) or with PBS containing 1% (v/v) Triton™ X-100.
Cells were washed with DPBS (containing Ca^2+, Mg^2+ and 0.2% (w/v) gelatin) and incubated with 1 μg/ml of biotinylated annexin V (Pharmingen, San Diego, Calif.) or with 1 μg/ml of 9D2 antibody. After 2 h of incubation, cells were washed with 0.2% gelatin buffer and were incubated with streptavidin-HRP (1:500 dilution). […] HRP activity was measured by adding O-phenylenediamine (0.5 mg/ml) and hydrogen peroxide (0.03% w/v) in citrate-phosphate buffer, pH 5.5. After 15 min, 100 μl of supernatant were transferred to 96 well plates, 100 μl of 0.18 M H2SO4 were added and the absorbance was measured at 490 nm. Alternatively, PS-positive cells were detected by addition of carbazole substrate, resulting in insoluble red-brownish precipitate. […]

[2] = tested on: orthotopic MDA-MB-435 breast tumors; assay: 3G4 localization to tumor blood vessels in vivo; set-up: species or system mouse
Source text: Frozen sections of tumor and normal tissues were stained for the presence of mouse immunoglobulin. SCID mice that had been confirmed as having no detectable circulatory immunoglobulin were used to avoid background staining. In these studies, sections were counterstained with anti-mouse CD31 to detect vascular endothelium and the images were merged. […] Coincident staining appeared yellow, unless dominated by a particularly intense green or red fluorescence in that region. The antigen specificity of vessel localization was confirmed by the lack of endothelial staining in tumors from mice injected with the isotype-matched control antibodies, BBG3.

tumors = assay: 3G4 in syngeneic and xenogeneic tumor models (overall); assay type: in vivo; conditions: 100 μg i.p. 3 times a week
[3] = tested on: drug-resistant breast tumors; assay: 3G4 and cisplatin against drug-resistant breast tumors; assay type: in vivo, mouse; conditions: treated after day 20
Source text: Mice were inoculated with drug-resistant breast tumors and treated after day 20.

mCMV RVG102 = assay: Survival of mCMV-infected mice; assay type: in vivo, mouse; conditions: past 90 days post infection; untreated 25%
Pichinde virus = assay type: cell-based
human β2GPI = target: T1, human β2GPI (Homo sapiens, UniProt P02749); assay: Anti-hβ2GPI ELISA; assay type: binding
T1 construct: Human β2GPI (hβ2GP1) was purified from human plasma essentially as described previously; from tissue; host or cells: pooled human plasma
T1 sequence (P02749 20-345): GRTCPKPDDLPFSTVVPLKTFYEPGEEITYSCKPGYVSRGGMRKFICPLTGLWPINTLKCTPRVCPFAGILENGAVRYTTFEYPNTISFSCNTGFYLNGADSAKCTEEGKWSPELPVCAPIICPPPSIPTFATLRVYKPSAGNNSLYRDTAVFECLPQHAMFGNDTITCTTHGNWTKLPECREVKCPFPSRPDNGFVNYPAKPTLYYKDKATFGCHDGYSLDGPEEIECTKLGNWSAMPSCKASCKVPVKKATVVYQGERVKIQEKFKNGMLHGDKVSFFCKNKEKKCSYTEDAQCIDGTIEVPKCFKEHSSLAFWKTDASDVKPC
Procedure: (§1) The assay was performed as described above with the following modifications. hβ2GPI, nicked hβ2GPI, or recombinant hβ2GPI peptides were coated on 96-well Immunlon 2HB microtiter plates overnight at a concentration of 10 μg/ml. Plates were then blocked in 1% OVA for 1 hr. at room temperature. […] Plates were incubated for 1 hr. at 37° C. and antibody binding was detected. All ELISA studies were performed at least three times.

hβ2GPI domains = assay: ELISA on recombinant hβ2GPI domain constructs; assay type: binding, human; conditions: constructs I-V, II-V, III-V, IV-V
Procedure: as §1
β2GPI has five domains, of which the fifth domain is responsible for binding to anionic phospholipids. […] These domain constructs were made by serial truncations from the N-terminus, and so lack each of the N-terminal domains in turn, as follows: recombinant full-length hβ2GPI contains domains I-V; hβ2GPI from which domain I has been deleted contains domains II-V; hβ2GPI from which domains I and II have been deleted contains domains III-V; hβ2GPI from which domains I, II and III have been deleted contains domains IV-V; and hββ2GPI from which domains I, II, III and IV have been deleted contains domain V only.

Molecule | Binding (% Control) of Biotinylated 9D2 to PS [1] [%] | Binding (% Control) of Biotinylated annexin V to PS [1] [%] | binding to non-permeabilized monolayers (bEnd.3 and ABAE cells) | tumor blood vessels with localized antibody ([2]; after i.p. or i.v. injection) [%] | time to maximal localization to tumor vessels ([2]; i.p. injection) [h] | time to maximal staining of tumor vessels ([2]; i.v. injection) [h] | toxicity in tumor-bearing mice (tumors) | anti-tumor response [3] | survival (mCMV RVG102) [%] | infected cells (Pichinde virus) | binding to hβ2GPI coated plate (human β2GPI) | β2GPI domain recognized (hβ2GPI domains)
Annexin V: High affinity PS binding ligand; natural ligand binding anionic phospholipids and PE | 93 | 8 | Neither 9D2 nor annexin V bound |  |  |  |  |  |  |  |  | 
3G4: Mouse IgG3 kappa monoclonal antibody to PS and anionic phospholipids; binding mediated by β2-glycoprotein I (antibody, listed as Mus musculus) VH: MGWTWIFILILSVTTGVHSEVQLQQSGPELEKPGASVKLSCKASGYSFTGYNMNWVKQSHGKSLEWIGHIDPYYGDTSYNQKFRGKATLTVDKSSSTAYMQLKSLTSEDSAVYYCVKGGYYGHWYFDVWGAGTTVTVSSATTTAPSVYPLVP VL: MDMRAPAQILGFLLLLFPGTRCDIQMTQSPSSLSASLGERVSLTCRASQDIGSSLNWLQQGPDGTIKRLIYATSSLDSGVPKRFSGSRSGSDYSLTISSLESEDFVDYYCLQYVSSPPTFGAGTKLELKRADAAPTVFIFGRIP |  |  |  | 40±10 | ≤ 6 | ≤ 1 | No toxicity was observed | tumor growth was slowed | 100 | about one in about a hundred cells | bound strongly | binds to β2GPI at domain II
